# Source: the nanobody polyreactivity screen of Harvey et al. (2022)
# Assay: yeast display, Sf9 membrane polyspecificity reagent, FACS + sequencing; frameworks hold sequencing errors
# Procedure, shortened: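 Genes from sorted yeast were amplified by colony PCR, read by MiSeq 2 × 250 sequencing and filtered on CDR length. These cells carried a synthetic nanobody library in Saccharomyces cerevisiae BJ5465 and were sorted by FACS into low and high (top ~1%) gates on anti-HA and streptavidin fluorescence. Polyreactivity is labelled according to the gate of origin.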
sequence,measurement,value
QVQLVESGGGLVQAGGSLRLSCAASGSIFRGYAMGWYRQAPGKERELVAAIRYSGARTYYADSVKGRFTISRDNAKNTVYLQMNSLKPEDTAVYYCNARYIRSYDYWGQGTQVTVSS,polyreactivity (PSR sort gate),high polyreactivity
QVQLVESGGGLVQAGGSLRLICAASGFTFLVYAMAWDRQAPGKERELVAAIRWRGGSTYADSLKGRFTISRDNAKNTVYLQMYSLKPEDTAVYYCAAANRYYVSPRVYYWGQGTQVTVSS,polyreactivity (PSR sort gate),high polyreactivity
QVQLVESGGGLVQAGGSLRLSCAASGITFYRYALGWYRQAPGKERELVAAISSSGGSTYYADSVKGRFTISRDNAKNTVYLQMNSLKPEDTAVYYCATDSLYDYWGQGTQVTVSS,polyreactivity (PSR sort gate),high polyreactivity
QVQLVESGGGLVQAGGSLRLSCAASGRTFRYYAMGWYRQAPGKERELVAAITSADSTNYADSVKGRFTISRDNAKNTVYLQMNSLKPEDTAVYYCAAGYVYQAAAKYGRIFWGYDSWGQGSQVTVSS,polyreactivity (PSR sort gate),low polyreactivity
QVQLVDSGVGLVQAGGRLSLSCAASGLIFDFYAMGGYRQAPGKERELVATISWSGGTTSYADSVKGLFTISRDNAKNTVYIQMNSLKPEDTAVYYCAADGFQYTLGNYYWGQGTQVTLSS,polyreactivity (PSR sort gate),high polyreactivity
QVQLVESGGGLVQAGGSLRLSCAASGSIFSSNAMGWYRQAPGKERELVAAITRGGRTTYADSVKGRFTISRDNAKNTVYLQMNSLKPEDTAVYYCNAESYLTGWWVDYWGQGTQVTVSS,polyreactivity (PSR sort gate),low polyreactivity
QVQLVESGGGLVQAGGSLRLSCAASGLTFGDYTMGWYRQAPGKERELVAAITWSGASTYSADSVKGRFTISRDNAKNTVYLQMNSLKPEDTAVYYCAAERTPSYRAYDYWAQGTQVTVSS,polyreactivity (PSR sort gate),low polyreactivity
QVQLVESGGGLVQAGGSLRLSCAASGRIFTHNTMGWYRQAPGKERELVATIDSGGSTNYADSVNGRFTISRDNAKNTVNLQMNSLQPEDTAVYYCAARVRPWRYLMGYWGQGTQVTVSS,polyreactivity (PSR sort gate),low polyreactivity
QVQLVESGGRLVQAGGSLRLSCAASGLIYSRYAMGGYRQAPGKEREFVATISWSGGSRYYADSVKGRFTISRDNAKNTVYLQMNSLKPEDTAVYYCATKKWYYPGDSKYYYWGQGTQVTVSS,polyreactivity (PSR sort gate),high polyreactivity
QVQLVESGGGLVQAGGSLRLSGAASGSTFESYAMGWYRQAPGKERELVAAISWRVGSTYYADSVKGRFTISRDNAKNTVYLQMNSLKPEDTAVYDCASKGRYAHYGGYDYWGQGTQVTVSS,polyreactivity (PSR sort gate),low polyreactivity
QVQLVESGGGLVQAGGCLRLSCAASGSTFEDYAMGWYRQATGKERALVAAINSGGSTYYADSVKGRFTFSRHNAKNTVYLQMNSQKPEDTAVYYCAARIYYWTYRYNYWGQGTQVTVSS,polyreactivity (PSR sort gate),high polyreactivity
QVQLVESGGGLVQAGGRLRLSCAASGSIFRPNPMGLYRQAPGKDRELVAAITWSGDSTYYADSVKGRFTISRDNAKNTVYLQMNSLKPEDTAVYYCAADFTYQGYSANDYWGQGTQVTVSS,polyreactivity (PSR sort gate),low polyreactivity
QVQLVESGGGLVQAGGSLRLSCAASGYTFRNYAMGWYRQAPGKERELVAAISTRGVSTYYADSVKGRFTISRDNAKNTVYLQMNSLKPEDTADYYCAAAGGRYSRAAYDYWGQGTQVTVSS,polyreactivity (PSR sort gate),low polyreactivity
QVQLVESGGGLFQAGGSLRLSCAASGRIFGDNGMGWYRQAPGKERELVTYADSVKGRFTISRDNAKNTVYLQMNSLKPEDTAVYYCNKDPPRLSGLDENYWGQGTQVTVSS,polyreactivity (PSR sort gate),low polyreactivity
QVQLVESGGGLVQAGGSLRLSCAASGFIFGRKSMGWYRQAPGKERELVAAISSGDSTYYADSVKGRFTISRDNAKNTVYLQMNSLKPEDTAVYYCAARLVRQQSRPKGGYWGQGTQVTVSS,polyreactivity (PSR sort gate),high polyreactivity
QVQLVESGGGLVQAARTLRISCAASGYIFQYNSMRWYRPAPGKERELVAPSRYRGTSTYYADSVKGRFTISRDNAKNTDYSQMNRLKPEDTAVYYCAADSVQGRGFFGYGYWGQGTHVTVSS,polyreactivity (PSR sort gate),high polyreactivity
QVQLQESAGGLVQAGGSLRLRCSASGYSSCDASMGWYRQAPGKERELAASITKGSSTNYADSVKGRFTIRDNAKNTVYLQMNSLKPEDTAVWYCGVTYPYWGDYTYWGKGTQVTVSS,polyreactivity (PSR sort gate),low polyreactivity
QVQLVESGGGLVQAGGSLRLSCAASGSTFYVNAMGWYSQAPGKEREFVAAITWNSGSTYYADSVKGRFTISRDNAKNTVYLQMNSLKPEDTAVYYCAAVLSVRVYGYDYWGQGTQVTVSS,polyreactivity (PSR sort gate),low polyreactivity
QVQLVESGGGLVQAGGSLRLSCAASGSTYEYNAMGWSRQAPGKERELVASSTNYADSVKGRFTISRDNAKNTVYLQMNSLKPEDTAVYYCAREQCVNRNHDYWGQGTQVTVSS,polyreactivity (PSR sort gate),low polyreactivity
QVQLVASGGGLVQEGGSLRLSCAASGSTFYVNAMGWYRPAAGKERELVAAISLSGGRTYYADSVKGRFTISRDNAKNPVYLQMNSLNQEDTAVYYCAARDSARYYWGQGTQVTVSS,polyreactivity (PSR sort gate),high polyreactivity
QVQLVESGGGLVQAGGSLRLSCAASGRTFSPNSMVWYRPAPGKERELVAAITRSDGRTYYADSVKGRFTISRDNAKNTVYLQMNSLKPEDTAVYYCAVDGYYPPAWYEYDYWGQGTQVTVSS,polyreactivity (PSR sort gate),high polyreactivity
QVQLQESGGGLVHACGSLRPSCAASGSISDSWTMSWYRQAPGKEREFVAGITWGGTTNYADSVKGRFTISRDNAKNTVYLQMNSLKPEDSAVYYCNARQRTYYRTHRIRHKGNGYWGQGTQVTVSS,polyreactivity (PSR sort gate),low polyreactivity
QVQLVESGGGLVQAGGSLRLSCAASGGTFVGYAMGWYRQAPGKERELVASITRRGGNTYYADSVKGRFTISRDNAKNTVYLQMNSLKPEDTAVYYCDRRYYYQYRYDYWGQGTQVTVSS,polyreactivity (PSR sort gate),high polyreactivity
QVQLVESGGGLVQAGGSLRLSCAASGSIFIYYAMGGYRQEPGKERELVAAINTGGTTYYADSVKGRFTISRYNAKNTVYLQMNSLNPEDTAVYYCAKYIAYYGYVPSPWDHPGDDYWGQGTQVTVSS,polyreactivity (PSR sort gate),low polyreactivity
QVQLVESGGGLVQAGGSLRLSCAASGSISKINAMGWYRHAPGKERELVAAINTGDSTYYADSVKGRFTISRDNAKNTVYLQMNSLKPEDTAVYYCAAEGAPTGYDYWGQGTQVTVSS,polyreactivity (PSR sort gate),low polyreactivity
QVQLVESGGGLVQAGGSLRLSCAASGFTFGYYAMGWYRQAPGKERELVAAINYSGGSTYYADSVKGRFTISRDNEKNTVYLQMNSLKPEDTAVYYCAAAVLRTYVPDLYDYWGQGTQVTVSS,polyreactivity (PSR sort gate),high polyreactivity
QVQLVESGGGLVKAGGSLRLSCAASGGIFYRNSMGWYRQAPGKERELVAAISWRGGSTYYADSVKGRFTISRDNAKNTVYLQMNSLKPEDTAVYYCAARSVATYRYDYWGQGTQVTVSS,polyreactivity (PSR sort gate),high polyreactivity
QVQLVESGGGLVQAGGSLRLSCAASGSTFLRYAMGWYRQAPGKERELVADITTSGGITYYADSVKGRFTISRDNAKNTVYLQMNSLKPEDTAVYYCAARYLPYRRIKYDYWGQGTQVTVSS,polyreactivity (PSR sort gate),low polyreactivity
QVQHVESGGGLVQAGGSLRLSCAASGGTFSYNTMGWSRQAPGKERELVAVITFSGGSTYYADSVKGRFTISRDNAKNTVYLQMNSLKPEDTAVYYCNARSYPRWLRYDYWGQGTQVTVSS,polyreactivity (PSR sort gate),low polyreactivity
QVQLVESGGGLVQAGGTLRLSCAASGSSYFYYAMGWYRQAPRKERELVADITSGGSTDYADSVKGRFTISRDNAKNTVYVQINSVNPEDSAVYYCAADDFSGYGTEYDYWGQGTQVTVSS,polyreactivity (PSR sort gate),low polyreactivity
QVQLVDSGGGLVQAGGSLRLSCAASGRIIGGKAMGWYRLAPGKVREFVAAIRASGGSPHYADSVKGRFTISRDNAKNTVYLQRNSLTPEDTEVYYCNALSRNTHLYDYWGQGTHVTVSS,polyreactivity (PSR sort gate),high polyreactivity
QVQLVESGGGLVQAGGSLRLSCAASGRTFSTYAMGWYRQAPGKERELVAAKSSGGGRTYYADSVKGRFTISRDNAKNTVYLQMNSLKPEDTAVYYCAADRYFRSRRSYEYWGQGTQVTVSS,polyreactivity (PSR sort gate),low polyreactivity
QVQHVESGGGLVQAGGCLRVSCAASGRTFIYYAMGGYRPAPGKERELVAAITNRGGSTYYADSVKGRFTISRDNAQNTVYLLMNSLNPEDTAVYYCAARGKYPSASAYTYSYGYWGQGTQVTVSS,polyreactivity (PSR sort gate),high polyreactivity
QVQLVESGGGLVQAGGSLRLSCAASGFTFYTYFMGWYRPAPGKERELVAAITSGVSTNYADSVKGRFTISRDNAKNTVYLQMNSLKPEDTAVYYCNKDVRPAYRWYDYWGQDTQVTVSS,polyreactivity (PSR sort gate),low polyreactivity
QVQLVESGGGLVQAGGSLRITCAASGRIFGLYAMGWNRQAPGKEREFVAASSWSGTRTNYADSVKGRFTISRDNAKNTVDLQMNSLKPEDTAVYYCAAAYVSYTGYYGQEYDYWGQGTQVTVSS,polyreactivity (PSR sort gate),high polyreactivity
QVQLVESGGGLVQAGGSLRLSSAASGITFSEYAMGRYRQAPGKERELVATITSGGSTNYADSVKGRFTISRDNAKNTVYLQMNSLKPEDTAVYYCNALDGTVDFSGWYDDWGQGTQVTVSS,polyreactivity (PSR sort gate),low polyreactivity
QVQLVESGGGLVQAGGSLRLSCAASGRTFIGYAMGWYRQAPGKERELVATISVSGGSTYYADSVKGRFTISRDNAKNTVYLQMNSLKPEDTAVYYCAKAYLRYYDGPYDYWGQGTQVTVSS,polyreactivity (PSR sort gate),low polyreactivity
QVQLVESGGGLVQAGGSLRLSCAASGSIFGRYGAMGWSRQSPGKERELVAAIRTSGVSTYYADSVKGRFTISRDNAKNTVYLQMNSLKPEDTAVYYCAARAGRYRWTRFDYWGQGTQVTVSS,polyreactivity (PSR sort gate),low polyreactivity
QVQLVESGGGLVQAGGSLRLSCAASGSTIDGNAMGWYRQAPGKERELVAAITSGGSTNYADSVKGRFTISRDNAKNTVYLQMNSLKPEDTAVYYCAADTVSFSILYDYWGQGTQVTVSS,polyreactivity (PSR sort gate),low polyreactivity
QVQLVESGGGLVQAGGSLRLSCAASGRTFAPYAMGWYRQAPGKERELVAAITYSGGSTYYADSVKGRFTISRDNAKNTVYLQMNSLKPEDTAVYYCAKVDSEYRQVIQQEDDYWGQGTQVTVSS,polyreactivity (PSR sort gate),low polyreactivity
QVQLVESAGGLFQAGGSLRLSCAASGRIFGWNAMGWYIQATGKESELDAVITSGGITYYADSVKGRFTISPDNAKNTVCLQMISLKPEDTAVYYCAARGTEFYTYYRYYYWGQGTKVTVSS,polyreactivity (PSR sort gate),high polyreactivity
QVQLVESGGGLVQAGGSLRLSCAASGRTFNRNAMGWYRQAPAKERELVAAITSSGGRTYYADSVKGRFTISRDNAKNTVYLQMNSLKPEDTAVYYCNVGPYYPVYLGYLLWYDYWGQGTQVTVSS,polyreactivity (PSR sort gate),high polyreactivity
QVQLLESGGGLVQEGGSLRLSCAASGSTFHSYAMGWYRQAPGKERELVAGINRTGGSTYYADSVKGRFTISRDNAKNTVYLQMNSLKPEDTAVYYCAAVSYYASVYRYDYWGQGTQVTVSS,polyreactivity (PSR sort gate),low polyreactivity
